Laboratory results published in patent US20250361311A1 (published 2025).

T1: human scTL1A (human, UniProt O95150 72-251, biotinylated (captured with the Biotin CAPture kit); site not stated)
T1 chain: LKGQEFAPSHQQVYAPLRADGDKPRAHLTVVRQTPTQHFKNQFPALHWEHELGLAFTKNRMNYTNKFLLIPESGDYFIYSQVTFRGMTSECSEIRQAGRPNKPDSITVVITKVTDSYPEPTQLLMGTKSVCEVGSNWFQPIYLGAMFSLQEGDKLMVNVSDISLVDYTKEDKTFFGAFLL

T2: recombinant TL1A (UniProt O95150 72-251)
T2 chain: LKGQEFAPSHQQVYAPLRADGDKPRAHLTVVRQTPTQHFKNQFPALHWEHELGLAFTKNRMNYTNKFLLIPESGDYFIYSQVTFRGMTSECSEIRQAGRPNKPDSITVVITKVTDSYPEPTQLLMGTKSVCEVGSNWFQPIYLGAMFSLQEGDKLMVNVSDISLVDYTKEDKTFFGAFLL


Assays:
human scTL1A = target: T1, human scTL1A; assay: SPR; monovalent Fab
recombinant TL1A = target: T2, recombinant TL1A; assay: SPR; run in different experiment under similar conditions
70392_074[TL1A]H1L1 = assay: SPR; monovalent Fab
70392_201[TL1A]H1L1 = assay: SPR; monovalent Fab
70417_111[TL1A]H1L1 = assay: SPR; monovalent Fab
70392_069[TL1A]H1L1 = assay: SPR; monovalent Fab
70416_092[TL1A]H1L1 = assay: SPR; monovalent Fab
Comparator 2 = assay: SPR; monovalent Fab
70392_189[TL1A]H1L1 = assay: SPR; monovalent Fab
70416_073[TL1A]H1L1 = assay: SPR; monovalent Fab

Kd (human scTL1A) [nM] | Kd (recombinant TL1A) [nM] | Kd (70392_074[TL1A]H1L1) [nM] | Kd (70392_201[TL1A]H1L1) [nM] | Kd (70417_111[TL1A]H1L1) [nM] | Kd (70392_069[TL1A]H1L1) [nM] | Kd (70416_092[TL1A]H1L1) [nM] | Kd (Comparator 2) [nM] | Kd (70392_189[TL1A]H1L1) [nM] | Kd (70416_073[TL1A]H1L1) [nM] | Binder
0.104 | 0.104 | – | – | – | – | – | – | – | – | 70416_041[TL1A]H1L1 Fab (Fab, V domains shown) VH: QVQLVQSGAEVKKPGASVKVSCKVSGFSVTSYNVHWVRQAPGQGLEWMGVMWSGGNTDYNSKFQGRVTMTRDTSTNTVYMELSSLRSEDTAVYYCARAGRYYHDSNYYWDFPYWGQGTLVTVSS VL: DIQMTQSPSSVSASVGDRVTITCRASEDIYSGLAWYQQKPGKSPKLLIYGASSLQDGVPSRFSGSGSGTDYTLTISSLQPEDFATYFCQEGLKSPYTFGAGTKLEIK
– | – | 6.11 | 0.128 | 6.84 | 1.69 | 3.12 | 0.0708 | 0.895 | 6.61 | scTL1A (ligand, biotinylated (captured with the Biotin CAPture kit); site not stated) LKGQEFAPSHQQVYAPLRADGDKPRAHLTVVRQTPTQHFKNQFPALHWEHELGLAFTKNRMNYTNKFLLIPESGDYFIYSQVTFRGMTSECSEIRQAGRPNKPDSITVVITKVTDSYPEPTQLLMGTKSVCEVGSNWFQPIYLGAMFSLQEGDKLMVNVSDISLVDYTKEDKTFFGAFLL
